These results are taken from article PMC10303918.

This test has as its target recombinant human CA125 (rhCA125) (human) (UniProt Q8WXI7).

In the case of “recombinant human mesothelin Fc fusion (hrMSLN-Fc) (from UniProt Q13421 296-598)”, the adhesion of GFP-MSLN transfected HEK 293 T cells on an OVCAR-3 (MSLN+, MUC16+) monolayer in the presence of 1 uM Nb A1; percent of adhesion blocked was more than 90%.
